Assay: yeast display, Sf9 membrane polyspecificity reagent, FACS + sequencing; frameworks hold sequencing errors
Method in brief: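 In a synthetic yeast display library (Saccharomyces cerevisiae BJ5465), nanobody expression was induced with galactose for 36–48 hours. FACS gates were set low and high (top ~1%) using anti-HA fluorescence for expression and streptavidin fluorescence for binding of the Sf9 membrane reagent. Each polyreactivity label is drawn from the gate of origin.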

Sequence | polyreactivity (PSR sort gate)
QVQLVESGGGLVQAGGSLRLICAASGSIFQFYAMGWYRQAPGKERELVAVITTSGVSTYYADSVKGRFTISRDNAKNTDYLQMNSLKPEDTAVYYCAADDYYLAGDYWGQGTQVTVSS | low polyreactivity
QVQLVESGGGLVQAGGSLRLICAASGSIFQPYAMGWYRQAPGKERELVAAINGRGGSTHYADSVKGRFTISRDNAKNTVYLQMNSLKPEDTAVYYCAARYYRDYRWYTYAYDYWGQGTQVTVSS | high polyreactivity
QVQLVESGGGLVQAGGSLRLICAASGSIFRSYAMGWYRQAPGKERELVAPIDRSGGSTYYADSVKGRLTISRDYAKNTVYCQLNSLKPEDTAVYNSNKTPHFPRPGFNYWGLGTQVTVSS | low polyreactivity
QVQLVESGGGLVQAGGSLRLICAASGSIFRYYVKGWYRQAPGKERELVASISYSVGRTYYADSVKGRFTISRDYAKNTVYLQMNSLKPEDTAVYYCAADRYWPYYSAYYTSYRMDYWGQGTQVTVSS | high polyreactivity
QVQLVESGGGLVQAGGSLRLICAASGSIFSSYAMGWYRQAPGTGRELVASISRRGGSTYYADSVKGRFTISRDNAKNTVYLQMNSLKPEDTAVYYCNASGGPYRYYYWGQGTQVTVSS | low polyreactivity
QVQLVESGGGLVQAGGSLRLICAASGSIFTSNAMGWYRQAPGKERELVAAITSDGAITYADSVKGRFTISRDNAKNTVYLQMNSLKPEDTAVYYCATEIEYYVGSVADMGYWGQGTQVTVSS | low polyreactivity
QVQLVESGGGLVQAGGSLRLICAASGSIFVNNAMGWYRQAPGKERELVAAISRSGGSTYYADSVKGRFTISRDNAKNTVYLQMNSLKPEDTAVYYCATVHRSSTPPEFNYWGQGTQVTVSS | high polyreactivity
QVQLVESGGGLVQAGGSLRLICAASGSIFYNNDMGWYRQAPGKERELVAAINWNGGSTYYADSVKGRFTISRDNAKNTVYLQMNSLKPEDTAVYYCNAEPFWYNYGYDDDYWGQGTQVTVSS | high polyreactivity
QVQLVESGGGLVQAGGSLRLICAASGSILYKYAMGWYRQAPGKERELVAAISSRGGNTYYADSVKGRFTISRDNSKNTVYLQMNSLKPEDTAVYYCAADLWAGKYGEYDYWGQGTQVTVSS | high polyreactivity
QVQLVESGGGLVQAGGSLRLICAASGSTFDLYAMGWYRQAPGKESELVAAITRCGSTYYADSVKGRFTISRDNAKNTVYLQMNSLKPEDTAVYYCAASRYYNTVHNGGDYWGQGTQVTLSS | high polyreactivity
QVQLVESGGGLVQAGGSLRLICAASGSTFGDYDMGWYRQAPGKETELVAAISNGGSTYYADSVKGRFTISRDYAKNTVYLQMNSLKREETAVYYCNADNVEIRSTYEYGRYLYGYWGQGTQVTVSS | low polyreactivity
QVQLVESGGGLVQAGGSLRLICAASGSTFGFYGMGWYRQAPGKERELVASIDSRGDSTYADSVKGRFTISRDNAKKTVYVQMNSLKPEDTAVYYCAAESWYTWFDSWGQGTQVTVSS | low polyreactivity
QVQLVESGGGLVQAGGSLRLICAASGSTFPTYAMGWYRQAPGKERELVAAISTRGGSTYYADSVKGRFTISRDNAKNTVYLQMNSVKPEDTAVYYCATGKTVGRYHYEYWGQGTQVTVSS | low polyreactivity
QVQLVESGGGLVQAGGSLRLICAASGSTFQLTAMGWYIQAPGTEREFVASITDSGGRTYYADSVKGRFTISRDNANNTVYLQMNSLKPVDTAVYYCNTAGAAERRRAYDHDYWGQGTQVTVSS | high polyreactivity
QVQLVESGGGLVQAGGSLRLICAASGSTFSSYAMGLYIQAPGKEREFVAAINTDGGSTYYADSVKGRFTISRDNAKNTVYLQMNSLKPEDTAVYYCAADDISLAAHFDSWGQGTQVTVSS | low polyreactivity
QVQLVESGGGLVQAGGSLRLICAASGSTFVFYAMGWYRQAPGKERELYATISTGGSTYADSVKGRFTISRDNSKNTVYLQMNSLIPEDTAVYYCNARLRSFTLSDAEYEYWGQGTQETVSS | low polyreactivity
QVQLVESGGGLVQAGGSLRLICAASGSTNPRNAMGWYRQAPGKERELDADITSGGSTNYADSVKGRFTISRDNAKNTVYLQMNRLKPEDTAVYYCAADEQVNTQYVVWGDYWGQGTQVTVSS | low polyreactivity
QVQLVESGGGLVQAGGSLRLICAASGSTSQINAMGWYRQAPGKERELVAAINSGDITNYADSVKGRFTISRDNAKNTVYLQMNSLKPEDTAVYYCNADILVVKFDYWGQGTQVTVSS | low polyreactivity
QVQLVESGGGLVQAGGSLRLICAASGSTYSYYAMAWYRQAPGKERELVAAINSSGGSTYYADSEKGRFTISRDKAKNTVYLQMNSLKPEDTAVYYGAAARRRTGVRMDYWGQGTQVTVSS | high polyreactivity
QVQLVESGGGLVQAGGSLRLICAASGYIFDHYAMGWYRQAPGKERELVAAINWSGGRTYYADSVKGRFTISRDNAKNTVYLQMNSLKPEDTAVYYCAAGGVSENDYWGQGTQVTVSS | high polyreactivity
QVQLVESGGGLVQAGGSLRLICAASRFTFPGYTLGWYRQEPGKERELVATINRSGSTTYADSVKGRFTISRDNAKNTVYLHMYRLKPQDTADYYCAAVVWGSGNKMDYWGQGTQVTGSS | high polyreactivity
QVQLVESGGGLVQAGGSLRLICAASRRTYYSNAMGWYRQAPGKERELVAASTSTDDSTYYADSVKGRFTISRDNAKNTVYLQMNSLKPEDTAVYYCNTDGLIAIRGLWWVEYDYWGQGTQVTVSS | low polyreactivity

Reference: the nanobody polyreactivity screen of Harvey et al. (2022)
